Experimental data published in patent publication US9115359B2, “Methods for producing secondary metabolites” (NewSouth Innovations Pty Limited, priority 2007, dated 2015).

What was measured:
[1] = tested on: E. coli AcpS; conditions: reported (21,40); with respect to CoA; cited from earlier work
[2] = tested on: HetM ArCP; test: NhcS PPT assay, ESI-MS; format: biochemical, N. punctiforme ATCC29133; conditions: 30 minutes, 37° C.
Protocol: (§1) PPT assays were carried out as previously described in Finking, R., et al., (2002) Characterization of a new type of phosphopantetheinyl transferase for fatty acid and siderophore synthesis in Pseudomonas aeruginosa. J Biol Chem 277:50293-302). In brief, a 100-400 μL reaction comprising of 50 mM Tris-HCl pH 7.4, 12.5 mM MgCl, 0.5 mM CoA, 2 μM DTT, 30 μg of the respective carrier proteins (CPs) and 300 nM of PPT was incubated at 37° C. for 30 minutes. Reactions were terminated by the addition of 1 ml of 10% TCA. Assays were precipitated overnight at −20° C. before at centrifugation 4° C., for 15 mins at 16,000 g. Protein pellets were analysed by electrospray ionisation mass spectrometry (ESI-MS). Spectra were acquired using an API QStar Pulsar i hybrid tandem mass spectrometer (Applied Biosystems, Foster City Calif.). Samples (˜200-400 fmol) were dissolved in water:acetonitrile:formic acid (50:49:1), loaded (1 μl) into nanospray needles (Proxeon, Denmark) and the tip positioned ˜10 mm from the orifice. Nitrogen was used as curtain gas and a potential of 900 V applied to the needle. A T of MS scan was acquired (m/z 550-2000, 1 second) and accumulated for ˜1 minute into a single file. […]
(§2) Activity was detected by ionisation mass spectrometry through the mass addition of […], relating to the incorporation of the pantetheinyl arm of CoA transferred by the PPT to the CP (FIG. 17).

[3] = tested on: Mpcp; test: NhcS PPT assay, ESI-MS; format: biochemical, Microcystis aeruginosa; conditions: 30 min assay
Protocol: as §1, §2

[4] = tested on: Nppcp; test: NhcS PPT assay, ESI-MS; format: biochemical, Nostoc punctiforme; conditions: 30 minutes, 37° C.
Protocol: as §1, §2

[5] = tested on: Synechocystis sp. PCC6803; test: Complementation of Sppt gene disruption with NsPPT; format: cell-based; conditions: PCR screening of segregation
Source text: A 2.5 kb fragment including Sppt (slr0495, Swissprot accession number Q55185) was amplified with the primers sirup (5′-[…]-3′) (SEQ ID NO: 7) and slrdn (5′-[…]-3′) (SEQ ID NO: 8). This fragment was cloned into pGEM-T-Easy (Promega) and digested with the restriction enzyme AvaI. A chloramphenicol (Chl^R) resistance cassette was ligated into this site and the resulting plasmid, pGCSlr, was naturally transformed into Synechocystis sp. PCC6803 to insertionally inactivate Sppt using methods described in Eaton-Rye, J., 2004 The construction of gene knockouts in the cyanobacterium Synechocystis sp. PCC 6803, Methods Mol. Biol.; 274:309-24. The Synechocystis sp. PCC6803 wildtype (WT) was also transformed with a chloramphenicol resistance knockout plasmid as a positive control for strain viability. Briefly, approximately 2 ml Synechocystis sp. PCC6803 cells were centrifuged and washed in BG-11 media. After resuspension in […] BG-11, 3 μg ml^−1 plasmid was added and the cells were incubated at 25° C. in 30 μmol m^−2 sec^−1 constant light for 6 hours. The cells were spread onto sterile nitrocellulose filters (0.45 μm, Millipore, Billerica Mass.) on non-selective BGTS plates (BG-11, 10 mM TES, 0.3% sodium thiosulfate, 1% agar). After 36 hours, the filters were transferred to selective BGTS plates with 10 μg ml^−1 chloramphenicol. […]

Molecule | kcat value [1] | conversion of apo-ArCP to holo-ArCP [2] | pantetheinylation of Mpcp [3] | pantetheinylation of Nppcp [4] | Sppt gene disruption in NsPPT-complemented strain [5]
CC(C)(COP(=O)(O)OP(=O)(O)OC[C@H]1O[C@@H](n2cnc3c(N)ncnc32)[C@H](O)[C@@H]1OP(=O)(O)O)[C@@H](O)C(=O)NCCC(=O)NCCS [CoA, co-enzyme A] | approximately 10 min^d | – | – | – | –
NhcS: phosphopantetheinyl transferase (heterocyst carrier protein synthase) from Nodularia spumigena NSOR10 (protein) MTALNHLWLPVPTNLTLLPNDVHIWRIHLDVPEAQQQNLLATLSGDELTRANRFHFQEHRQRFIAGRGILRSILGSYLGIEPQRVLFDYQERGKPILADSLAKSGLWFNLSHSQGLALCAVNYHNRIGIDLEYIRRMSDVEALAKRFFLPREYDVVRSLSDHQQQEIFFRYWTCKEAYLKATGEGLAQLEQVEVLLNPTEPAQLQTSESWSLFELRAAEDYFAAVVVEGSGCNLQCWQY | – | conversion of the apo-ArCP (15.75 kDa) to the holo-ArCP (16.05 kDa) is seen | Complete pantetheinylation | Nppcp was pantetheinylated | Sppt was effectively disrupted in the NsPPT-complemented strain
